Source: patent US20020106690A1 (published 2002)

T1: Ste4p, P18851
T1 chain: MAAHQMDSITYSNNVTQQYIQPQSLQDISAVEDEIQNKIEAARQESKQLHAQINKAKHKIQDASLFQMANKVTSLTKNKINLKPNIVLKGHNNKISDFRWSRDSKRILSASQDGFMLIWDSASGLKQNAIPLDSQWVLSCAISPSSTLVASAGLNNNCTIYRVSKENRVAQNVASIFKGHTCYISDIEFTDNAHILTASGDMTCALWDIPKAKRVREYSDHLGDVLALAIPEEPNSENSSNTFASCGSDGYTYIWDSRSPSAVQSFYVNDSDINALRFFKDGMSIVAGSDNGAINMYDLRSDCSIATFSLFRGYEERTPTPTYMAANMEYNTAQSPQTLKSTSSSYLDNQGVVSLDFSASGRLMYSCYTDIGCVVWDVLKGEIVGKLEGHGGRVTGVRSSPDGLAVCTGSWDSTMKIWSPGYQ

T2: Ste4p (Saccharomyces cerevisiae (yeast)) (UniProt P18851)
T2 sequence (35S-labelled methionine in the in vitro-translated form, looked up): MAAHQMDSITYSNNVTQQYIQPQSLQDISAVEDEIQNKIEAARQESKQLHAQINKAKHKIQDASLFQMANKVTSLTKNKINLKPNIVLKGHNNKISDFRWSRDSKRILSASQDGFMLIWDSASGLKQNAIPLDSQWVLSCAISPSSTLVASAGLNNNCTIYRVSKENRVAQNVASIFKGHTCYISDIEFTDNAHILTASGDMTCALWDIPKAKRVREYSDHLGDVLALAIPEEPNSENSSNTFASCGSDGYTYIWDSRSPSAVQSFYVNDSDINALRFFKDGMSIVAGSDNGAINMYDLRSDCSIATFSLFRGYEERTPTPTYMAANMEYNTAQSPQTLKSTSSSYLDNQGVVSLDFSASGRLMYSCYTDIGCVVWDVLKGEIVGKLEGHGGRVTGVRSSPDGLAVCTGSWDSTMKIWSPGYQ

T3: GST-Ste20p FL (Saccharomyces cerevisiae (yeast), UniProt Q03497 1-939)
T3 construct: Purified on glutathione-Sepharose beads; also called GST fusion with full length Ste20p; not shown: glutathione S-transferase (GST), amino-terminal fusion partner
T3 sequence: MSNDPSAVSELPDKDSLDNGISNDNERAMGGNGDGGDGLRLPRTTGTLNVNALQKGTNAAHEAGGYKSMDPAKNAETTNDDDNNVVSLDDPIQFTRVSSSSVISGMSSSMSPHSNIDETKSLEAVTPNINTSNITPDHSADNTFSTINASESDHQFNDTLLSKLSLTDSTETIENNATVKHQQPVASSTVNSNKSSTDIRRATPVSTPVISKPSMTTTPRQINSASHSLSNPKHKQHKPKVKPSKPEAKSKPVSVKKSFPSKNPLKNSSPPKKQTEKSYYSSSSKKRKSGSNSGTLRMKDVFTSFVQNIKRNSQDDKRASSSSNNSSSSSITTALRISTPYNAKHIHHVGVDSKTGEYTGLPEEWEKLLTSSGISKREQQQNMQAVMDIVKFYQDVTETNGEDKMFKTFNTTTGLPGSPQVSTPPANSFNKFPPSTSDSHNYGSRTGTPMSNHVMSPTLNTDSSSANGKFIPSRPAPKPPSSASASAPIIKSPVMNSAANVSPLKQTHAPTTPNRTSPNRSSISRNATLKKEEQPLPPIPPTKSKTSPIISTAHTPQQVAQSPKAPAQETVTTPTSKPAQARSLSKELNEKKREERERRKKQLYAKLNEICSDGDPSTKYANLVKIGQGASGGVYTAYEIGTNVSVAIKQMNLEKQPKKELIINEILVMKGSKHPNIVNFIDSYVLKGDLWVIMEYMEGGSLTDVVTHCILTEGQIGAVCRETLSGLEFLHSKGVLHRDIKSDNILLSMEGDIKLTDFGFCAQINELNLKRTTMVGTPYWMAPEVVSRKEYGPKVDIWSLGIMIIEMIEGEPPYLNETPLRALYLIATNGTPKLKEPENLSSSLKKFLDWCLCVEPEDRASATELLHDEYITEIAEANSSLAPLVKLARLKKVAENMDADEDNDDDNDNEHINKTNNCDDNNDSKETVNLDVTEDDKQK


How the values were obtained:
Ste4p, P18851 = target: T1, Ste4p, P18851
[1] = target: T2, Ste4p (Saccharomyces cerevisiae (yeast)); assay: GST pull-down of in vitro-translated 35S-Ste4p with HA-Ste18p present; normalized against wild-type Ste20p 819-939
GST-Ste20p FL = target: T3, GST-Ste20p FL; assay: GST pull-down of in vitro-translated 35S-Ste4p mutant, with HA-Ste18p present
Source text: Interaction of Ste4p mutants with Ste20p and Ste5p. […] Relative amounts of the GST fusion proteins and of ³⁵S-Ste4p were quantified by densitometric evaluation of Western blots and autoradiographs, respectively. Data are given as percentage of binding of wild-type ³⁵S-Ste4p (mean values ±SD, n≧3).
The beads were then washed three times with PBS, separated by SDS-PAGE and analysed by autoradiography of Western blots. Results were confirmed in at least three independent experiments. Immunodetection and evaluation of immunoblots and radiographs were then performed as described above. Data obtained for ³⁵S-Ste4p were corrected for relative concentrations of the respective GST fusion proteins.

Row | Binder | G1 arrest (Ste4p, P18851) | Mating efficiencies (%) (Ste4p, P18851) | Shmoo formation (Ste4p, P18851) | FUS1::lacZ expression (Ste4p, P18851) | binding result (GST-Ste20p FL) | other results
1 | Ste20p^495-888 (protein) MNSAANVSPLKQTHAPTTPNRTSPNRSSISRNATLKKEEQPLPPIPPTKSKTSPIISTAHTPQQVAQSPKAPAQETVTTPTSKPAQARSLSKELNEKKREERERRKKQLYAKLNEICSDGDPSTKYANLVKIGQGASGGVYTAYEIGTNVSVAIKQMNLEKQPKKELIINEILVMKGSKHPNIVNFIDSYVLKGDLWVIMEYMEGGSLTDVVTHCILTEGQIGAVCRETLSGLEFLHSKGVLHRDIKSDNILLSMEGDIKLTDFGFCAQINELNLKRTTMVGTPYWMAPEVVSRKEYGPKVDIWSLGIMIIEMIEGEPPYLNETPLRALYLIATNGTPKLKEPENLSSSLKKFLDWCLCVEPEDRASATELLHDEYITEIAEANSSLAPLVKLA | + | 75.2 | + |  |  | FUS1::lacZ expression, Basal (Ste4p, P18851): 1.6; FUS1::lacZ expression, Induced (Ste4p, P18851): 148
2 | Ste20p^S879A/S880A/P883A (protein) MSNDPSAVSELPDKDSLDNGISNDNERAMGGNGDGGDGLRLPRTTGTLNVNALQKGTNAAHEAGGYKSMDPAKNAETTNDDDNNVVSLDDPIQFTRVSSSSVISGMSSSMSPHSNIDETKSLEAVTPNINTSNITPDHSADNTFSTINASESDHQFNDTLLSKLSLTDSTETIENNATVKHQQPVASSTVNSNKSSTDIRRATPVSTPVISKPSMTTTPRQINSASHSLSNPKHKQHKPKVKPSKPEAKSKPVSVKKSFPSKNPLKNSSPPKKQTEKSYYSSSSKKRKSGSNSGTLRMKDVFTSFVQNIKRNSQDDKRASSSSNNSSSSSITTALRISTPYNAKHIHHVGVDSKTGEYTGLPEEWEKLLTSSGISKREQQQNMQAVMDIVKFYQDVTETNGEDKMFKTFNTTTGLPGSPQVSTPPANSFNKFPPSTSDSHNYGSRTGTPMSNHVMSPTLNTDSSSANGKFIPSRPAPKPPSSASASAPIIKSPVMNSAANVSPLKQTHAPTTPNRTSPNRSSISRNATLKKEEQPLPPIPPTKSKTSPIISTAHTPQQVAQSPKAPAQETVTTPTSKPAQARSLSKELNEKKREERERRKKQLYAKLNEICSDGDPSTKYANLVKIGQGASGGVYTAYEIGTNVSVAIKQMNLEKQPKKELIINEILVMKGSKHPNIVNFIDSYVLKGDLWVIMEYMEGGSLTDVVTHCILTEGQIGAVCRETLSGLEFLHSKGVLHRDIKSDNILLSMEGDIKLTDFGFCAQINELNLKRTTMVGTPYWMAPEVVSRKEYGPKVDIWSLGIMIIEMIEGEPPYLNETPLRALYLIATNGTPKLKEPENLSSSLKKFLDWCLCVEPEDRASATELLHDEYITEIAEANAALAALVKLARLKKVAENMDADEDNDDDNDNEHINKTNNCDDNNDSKETVNLDVTEDDKQK | - | 0.039 | - | 14 |  | 
3 | Ste20p^CLA4 (protein) MSNDPSAVSELPDKDSLDNGISNDNERAMGGNGDGGDGLRLPRTTGTLNVNALQKGTNAAHEAGGYKSMDPAKNAETTNDDDNNVVSLDDPIQFTRVSSSSVISGMSSSMSPHSNIDETKSLEAVTPNINTSNITPDHSADNTFSTINASESDHQFNDTLLSKLSLTDSTETIENNATVKHQQPVASSTVNSNKSSTDIRRATPVSTPVISKPSMTTTPRQINSASHSLSNPKHKQHKPKVKPSKPEAKSKPVSVKKSFPSKNPLKNSSPPKKQTEKSYYSSSSKKRKSGSNSGTLRMKDVFTSFVQNIKRNSQDDKRASSSSNNSSSSSITTALRISTPYNAKHIHHVGVDSKTGEYTGLPEEWEKLLTSSGISKREQQQNMQAVMDIVKFYQDVTETNGEDKMFKTFNTTTGLPGSPQVSTPPANSFNKFPPSTSDSHNYGSRTGTPMSNHVMSPTLNTDSSSANGKFIPSRPAPKPPSSASASAPIIKSPVMNSAANVSPLKQTHAPTTPNRTSPNRSSISRNATLKKEEQPLPPIPPTKSKTSPIISTAHTPQQVAQSPKAPAQETVTTPTSKPAQARSLSKELNEKKREERERRKKQLYAKLNEICSDGDPSTKYANLVKIGQGASGGVYTAYEIGTNVSVAIKQMNLEKQPKKELIINEILVMKGSKHPNIVNFIDSYVLKGDLWVIMEYMEGGSLTDVVTHCILTEGQIGAVCRETLSGLEFLHSKGVLHRDIKSDNILLSMEGDIKLTDFGFCAQINELNLKRTTMVGTPYWMAPEVVSRKEYGPKVDIWSLGIMIIEMIEGEPPYLNETPLRALYLIATNGTPKLKEPENLSSSLKKFLDWCLCVEPEDRASATELLHDEYITEIAEANKDLTSLLEWARLKKVAENMDADEDNDDDNDNEHINKTNNCDDNNDSKETVNLDVTEDDKQK | - | 0.016 | - | 11 |  | 
4 | GST fusion with the fragment from amino acid 819 to 939 of the Ste20p^S879A/S880A/P883A mutant (protein, not shown: a dimerising Fc or GST; large carriers; small tags and cut ends) PLRALYLIATNGTPKLKEPENLSSSLKKFLDWCLCVEPEDRASATELLHDEYITEIAEANAALAALVKLARLKKVAENMDADEDNDDDNDNEHINKTNNCDDNNDSKETVNLDVTEDDKQK |  |  |  |  |  | Binding to 35S-Ste4p (%) [1]: 15.2%
5 | Ste4p K55E mutant (other, Saccharomyces cerevisiae (yeast), UniProt P18851 1-423, looked up, 35S-labelled methionine, In vitro-translated, 35S-labelled; also called STE4^K55E; 35S-Ste4p K55E) MAAHQMDSITYSNNVTQQYIQPQSLQDISAVEDEIQNKIEAARQESKQLHAQINEAKHKIQDASLFQMANKVTSLTKNKINLKPNIVLKGHNNKISDFRWSRDSKRILSASQDGFMLIWDSASGLKQNAIPLDSQWVLSCAISPSSTLVASAGLNNNCTIYRVSKENRVAQNVASIFKGHTCYISDIEFTDNAHILTASGDMTCALWDIPKAKRVREYSDHLGDVLALAIPEEPNSENSSNTFASCGSDGYTYIWDSRSPSAVQSFYVNDSDINALRFFKDGMSIVAGSDNGAINMYDLRSDCSIATFSLFRGYEERTPTPTYMAANMEYNTAQSPQTLKSTSSSYLDNQGVVSLDFSASGRLMYSCYTDIGCVVWDVLKGEIVGKLEGHGGRVTGVRSSPDGLAVCTGSWDSTMKIWSPGYQ |  |  |  |  | no binding | 
6 | Ste4p D62N mutant (other, Saccharomyces cerevisiae (yeast), UniProt P18851 1-423, looked up, 35S-labelled methionine, In vitro-translated, 35S-labelled; also called STE4^D62N; 35S-Ste4p D62N) MAAHQMDSITYSNNVTQQYIQPQSLQDISAVEDEIQNKIEAARQESKQLHAQINKAKHKIQNASLFQMANKVTSLTKNKINLKPNIVLKGHNNKISDFRWSRDSKRILSASQDGFMLIWDSASGLKQNAIPLDSQWVLSCAISPSSTLVASAGLNNNCTIYRVSKENRVAQNVASIFKGHTCYISDIEFTDNAHILTASGDMTCALWDIPKAKRVREYSDHLGDVLALAIPEEPNSENSSNTFASCGSDGYTYIWDSRSPSAVQSFYVNDSDINALRFFKDGMSIVAGSDNGAINMYDLRSDCSIATFSLFRGYEERTPTPTYMAANMEYNTAQSPQTLKSTSSSYLDNQGVVSLDFSASGRLMYSCYTDIGCVVWDVLKGEIVGKLEGHGGRVTGVRSSPDGLAVCTGSWDSTMKIWSPGYQ |  |  |  |  | no binding | 
